The results in this text go back to PMC6522730, “NUDIX hydrolases with inorganic polyphosphate exo- and endopolyphosphatase activities in the glycosome, cytosol and nucleus of Trypanosoma brucei” (Bioscience Reports, 2019).

In general, Km refers to the substrate concentration at which the rate is half of its maximum. In general, Vmax refers to the top rate of the reaction or transport when substrate is in excess. As a reminder, the kcat/Km is the second-order rate constant that governs catalysis at low substrate concentration.

Substrate in data set [1]: Nc1ncnc2c1ncn2[C@@H]1O[C@H](COP(=O)(O)OP(=O)(O)OP(=O)(O)O)[C@@H](O)[C@H]1O
The experiment in a line: Pi release, malachite green assay. Format: biochemical, Trypanosoma brucei. Conditions: pH 8.0, 37°C, 6 mM MgCl2, 50 mM NaCl, 40 mM Hepes, 10 min. The text has this:
(§1) Pi release, malachite green assay on TbNH2

Substrate in data set [2]: Nc1ncnc2c1ncn2[C@@H]1O[C@H](COP(=O)(O)OP(=O)(O)O)[C@@H](O)[C@H]1O
The experiment in a line: Pi release, malachite green assay. To be noted: pH 8.0, 37°C, 6 mM MgCl2, 50 mM NaCl, 40 mM Hepes, 10 min. It is filed as biochemical, Trypanosoma brucei.
Text: as §1

B1: TbNH2 (Trypanosoma brucei brucei TREU927) (protein)
chain: MYRKNVCVVIFNEDLNFLACQRIHEDKFQFVQGGVEEGDADIIRAAYREVHEEVGLFPEDLRLIGEIMPPSGDPHEFRYILHEGANLRHFGYVGQQQRLFLFYTPSSTIQRVRLVPPKGSVAKQEFSHVEWLPIDEIIERCPKEKQHIFVAVSKVAIPMAKAFLKTRSSI
notes: full-length ORF in pET32 Ek/LIC (N-terminal thioredoxin/His tag), E. coli BL21-CodonPlus (DE3), nickel column
In the case of B1, in data set [1], the Km is reported as 78.1 ± 16.3 µM, the Vmax worked out at 0.0102 µmol/min/mg and the kcat/Km was 290000 M⁻¹ s⁻¹. Further, in data set [2], the Km stood at 46.5 ± 6.3 µM, the Vmax came out at 0.0056 µmol/min/mg and the kcat/Km was 270000 M⁻¹ s⁻¹.
